According to patent US11046988B2, “Process for the modification of a glycoprotein using a β-(1,4)-N-acetylgalactosaminyl transferase or a mutant thereof” (Synaffix B.V., priority 2014, dated 2021):

B1: GalT(Y289L): β-(1,4)-galactosyltransferase mutant enzyme Bos taurus GalT-Y289L (SEQ ID NO: 1), prior-art comparator (protein)
chain: MKFREPLLGGSAAMPGASLQRACRLLVAVCALHLGVTLVYYLAGRDLRRLPQLVGVHPPLQGSSHGAAAIGQPSGELRLRGVAPPPPLQNSSKPRSRAPSNLDAYSHPGPGPGPGSNLTSAPVPSTTTRSLTACPEESPLLVGPMLIEFNIPVDLKLIEQQNPKVKLGGRYTPMDCISPHKVAIIILFRNRQEHLKYWLYYLHPMVQRQQLDYGIYVINQAGESMFNRAKLLNVGFKEALKDYDYNCFVFSDVDLIPMNDHNTYRCFSQPRHISVAMDKFGFSLPYVQLFGGVSALSKQQFLSINGFPNNYWGWGGEDDDIYNRLAFRGMSVSRPNAVIGKCRMIRHSRDKKNEPNPQRFDRIAHTKETMLSDGLNSLTYMVLEVQRYPLYTKITVDIGTPS
modifications: Bos Taurus GalT Y289L mutant

Assay: Coupled glycosyltransferase assay (R&D Systems Glycosyltransferase Activity Kit, malachite green, 620 nm): transfer of F2-GalNAz to GlcNAc
Assay type: biochemical
Parameters: Data from the determination of the specific activity: unit not given here
Conditions: for Data from the determination of the specific activity: GlcNAc 20 mM, UDP-F2-GalNAz 500 μM, 20 min, room temperature, plate read at 620 nm; for specific activity: UDP-F2-GalNAz 500 μM to GlcNAc 20 mM, 5 mM MgCl2 and 5 mM MnCl2, pH 7.5, linear regression; for transferase activity compared with GalT(Y289L): transfer of F2-GalNAz from UDP-F2-GalNAz (18) to GlcNAc, FIG. 7 / FIG. 8
Source text: In brief, the glycosyltransferase kit determines the activity of a particular glycosyltransferase by means of a coupled assay that detects the release of liberated UDP upon transfer of the donor sugar (from the sugar-UDP nucleotide) to an acceptor sugar. In more detail, the UDP that is liberated upon transfer of sugar is hydrolyzed by a particular enzyme (CD39L3/rectonucleoside triphosphate diphosphohydrolase-3, also known as NTPDase-3) thereby generating UMP and one equivalent of phosphate (Pi). The latter phosphate in turn is detected by malachite green, which is also added to the mixture. A green color develops in proportion to the amount of inorganic phosphate released and the absorbance of the color at 620 nm is measured as a direct measure of the activity of the glycosyltransferase. In the present case, transfer of F2-GalNAz from the UDP-substrate to GlcNAc on the protein is accompanied by release of UDP, which is hydrolyzed by CD39L3 and the generated phosphate. Preferably, the derived or wild type β-(1,4)-GalNAcT enzyme used in the process according to the invention has at least 30%, 33%, 50%, 75%, 100%, 150%, 200%, or more preferably at least 300% of the UDP-F2-GalNAz transfer activity as compared to the UDP-F2-GalNAz transfer activity of the β-(1,4)-galactosyltransferase mutant enzyme Bos taurus GalT-Y289L (SEQ ID NO: 1), wherein the transfer activity is assessed using the R&D Systems Glycosyltransferase Activity Kit and applying the conditions as indicated in detail in Example 18 and using equal amounts of the enzyme to be tested and β-(1,4)-galactosyltransferase mutant enzyme Bos taurus GalT-Y289L (SEQ ID NO: 1).
Specific activity of enzymes was determined by a coupled glycosyltransferase procedure as described by Wu et al. in Glycobiology 2010, 21, 723-733, incorporated by reference, and commercially available as a kit from R&D system.
In short, a glycosyltransferase reaction was carried out in 50 μL of reaction buffer (25 mM Tris, 150 mM NaCl, 5 mM MgCl2 and 5 mM MnCl2, pH 7.5) in a 96-well plate at room temperature for 20 min. To determine the kinetic parameters of a glycosyltransferase, multiple reactions with varying amounts of the enzyme were carried out simultaneously (0.01, 0.02, 0.04, 0.06, 0.08, 0.10 and 0.12 μg of enzyme) in the presence of fixed amounts of all other components (GlcNAc: 20 mM, UDP-F2-GalNAz: 500 μM), including the coupling phosphatase 1 (ENTPD3/CD39L3) (2.5 μL of 20 ng/μL solution). A well containing all components except for the enzyme served as a blank control. The reactions were initiated by adding the substrates and phosphatase to the enzyme and terminated by the addition of 30 μL of Malachite reagent A and 100 μL of water to each well. The color was developed by the addition of 30 μL of Malachite reagent B to each well followed by gentle mixing and incubation at room temperature for 20 min. Following color development, the plate was read at 620 nm with a multi-well plate reader. A phosphate standard curve was also performed to determine the conversion factor between the absorbance and the inorganic phosphate contents. Preparation of UDP-F2-GalNAz is described in Example 13.
The specific activity of the GalNAcTs described herein were compared to GalT(Y289L), an enzyme known to transfer UDP-GalNAz as previously disclosed in WO 2007/095506 and WO 2008/029281 (both Invitrogen Corporation).
A graph depicting the conversion (in pmol/min/m) plotted against the amount of enzyme is shown in FIG. 7 (for Table 1) and FIG. 8 (for Table 2). From these plots specific activities were calculated by linear regression. […]

Molecule | Data from the determination of the specific activity (0.01 μg enzyme) | Data from the determination of the specific activity (0.02 μg enzyme) | Data from the determination of the specific activity (0.04 μg enzyme) | Data from the determination of the specific activity (0.06 μg enzyme) | Data from the determination of the specific activity (0.08 μg enzyme) | Data from the determination of the specific activity (0.1 μg enzyme) | Data from the determination of the specific activity (0.12 μg enzyme) | specific activity [pmol/min/µg] | transferase activity compared with GalT(Y289L)
CeGalNAcT(I257A): truncated C. elegans GalNAcT mutant, isoleucine 257 to alanine, SEQ ID NO: 12 | 0.009 | 0.032 | 0.049 | 0.078 | 0.097 | 0.119 | 0.152 | 240 | significantly higher
CeGalNAcT(I257L): truncated C. elegans GalNAcT mutant, isoleucine 257 to leucine, SEQ ID NO: 10 | 0.02 | 0.038 | 0.081 | 0.136 | 0.153 | 0.205 | 0.245 | 381 | significantly higher
CeGalNAcT-His: CeGalNAcT(30-383) with C-terminal His6-tag, SEQ ID NO: 14 | 0.024 | 0.044 | 0.129 | 0.161 | 0.191 | 0.226 | 0.285 | 332 | significantly higher
B1 | 0.005 | 0.011 | 0.013 | 0.02 | 0.027 | 0.034 | 0.039 | 44 | 
